Target: LITAF (LPS-induced TNF-α factor), full length
Assay: cell-based or functional assay

Chain of LITAF (LPS-induced TNF-α factor), full length (chain, as listed by the source limits assumed): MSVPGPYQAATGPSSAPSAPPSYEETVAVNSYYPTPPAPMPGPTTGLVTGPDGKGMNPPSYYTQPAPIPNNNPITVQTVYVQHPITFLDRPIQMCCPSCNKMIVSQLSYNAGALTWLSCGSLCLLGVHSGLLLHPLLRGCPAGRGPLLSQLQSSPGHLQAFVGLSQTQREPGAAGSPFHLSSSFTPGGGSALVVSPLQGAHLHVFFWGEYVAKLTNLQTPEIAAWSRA

TNF-promoter activity (luciferase), U2OS cells, co-transfection versus LITAF alone: 1.5 fold
TNF-α in supernatants of transfected THP-1 cells (ELISA), versus LITAF alone: 1.8 fold
cytokine antibody array, 'W-10' (probably IL-10), THP-1 cells co-transfected with LITAF and STAT6(B): 10 fold
cytokine antibody array, GRO, THP-1 cells co-transfected with LITAF and STAT6(B): 2.1 fold
cytokine antibody array, IFN-γ, THP-1 cells co-transfected with LITAF and STAT6(B): 6.2 fold
cytokine antibody array, IL-1α, THP-1 cells co-transfected with LITAF and STAT6(B): 3 fold
cytokine antibody array, MCP-2, THP-1 cells co-transfected with LITAF and STAT6(B): 8.5 fold
cytokine antibody array, RANTES, THP-1 cells co-transfected with LITAF and STAT6(B): 3.2 fold
cytokine antibody array, TNF-α, THP-1 cells co-transfected with LITAF and STAT6(B): 4 fold
B1: STAT6(B) (Signal transducer and activator of transcription), full length, aa 1-404 (other)
chain: MARRNPSPPLQRLRDWGHHHCPCHPGPGWLSTDGEHPAILCQRPVHSLTGGPNPGSCSAQKSLSQEAQGGGFPEPLQAWAGTGCSDSFLSPTSSLLPAALLSLPVCHPDVTPYFIAVLLLLPHDPCPPFPPPFLPNPRALHGCLFLLTTAEQMGKDGRGYVPATIKMTVERGVWWYGQWVGQGLVVLICRKEGWHQPLVSHMYLLPSSRDQPLPTPELQMPTMVPSYDLGMAPDSSMSMQLGPDMVPQVYPPHSHSIPPYQGLSPEESVNVLSAFQEPHLQMPPSLGQMSLSFDQPHPQGLLPCQPQEHAVSSPDPLLCSDVTTVEDSCLSQPVTAFPQGTWIGEDIFPPLLPPTEQDLTKLLLEGQGESGGGSLGAQPLLQPSHYGQSGISMSHMDLRANPSW

From patent US20090062190A1 (published 2009)
